# Patent US20140087995A1 (published 2014)
# Numbered stars: 1 amine (or outer) side, 2 acyl side, 3 side chain; on linkers, the order of the positions; unused ones are H or OH. Bridge positions count the residues as written; N and C are the ends. Side chains are listed from the residue outwards. Ends that are not written are not given here. * marks the point of attachment. C20 diacid = O=C(O)CCCCCCCCCCCCCCCCCCC(=O)*; γGlu = O=C(O)[C@H](CCC(=O)[*:2])N[*:1]
# B1: N^ε1-[(4S)-4-carboxy-4-(19-carboxynonadecanoylamino)butanoyl]-[Ala14,Arg17,Pro21,Pro27,Pro34]-h-amylin (peptide)
# peptide: K([γGlu-C20 diacid])CNTATCATQRLAAFLRHSSPNFGAIPSSTNVGPNTY-NH2
# modifications: disulfide 2-7; N-terminus assumed
# SMILES: CC[C@H](C)[C@H](NC(=O)[C@H](C)NC(=O)CNC(=O)[C@H](Cc1ccccc1)NC(=O)[C@H](CC(N)=O)NC(=O)[C@@H]1CCCN1C(=O)[C@H](CO)NC(=O)[C@H](CO)NC(=O)[C@H](Cc1c[nH]cn1)NC(=O)[C@H](CCCNC(=N)N)NC(=O)[C@H](CC(C)C)NC(=O)[C@H](Cc1ccccc1)NC(=O)[C@H](C)NC(=O)[C@H](C)NC(=O)[C@H](CC(C)C)NC(=O)[C@H](CCCNC(=N)N)NC(=O)[C@H](CCC(N)=O)NC(=O)[C@@H](NC(=O)[C@H](C)NC(=O)[C@@H]1CSSC[C@H](NC(=O)[C@@H](N)CCCCNC(=O)CC[C@H](NC(=O)CCCCCCCCCCCCCCCCCCC(=O)O)C(=O)O)C(=O)N[C@@H](CC(N)=O)C(=O)N[C@@H]([C@@H](C)O)C(=O)N[C@@H](C)C(=O)N[C@@H]([C@@H](C)O)C(=O)N1)[C@@H](C)O)C(=O)N1CCC[C@H]1C(=O)N[C@@H](CO)C(=O)N[C@@H](CO)C(=O)N[C@H](C(=O)N[C@@H](CC(N)=O)C(=O)N[C@H](C(=O)NCC(=O)N1CCC[C@H]1C(=O)N[C@@H](CC(N)=O)C(=O)N[C@H](C(=O)N[C@@H](Cc1ccc(O)cc1)C(N)=O)[C@@H](C)O)C(C)C)[C@@H](C)O
# notes: also called compound 94
# B2: N^ε1-[(4S)-4-carboxy-4-(19-carboxynonadecanoylamino)butanoyl]-[Arg17,Pro21,Pro27,His34]-h-amylin (peptide)
# peptide: K([γGlu-C20 diacid])CNTATCATQRLANFLRHSSPNFGAIPSSTNVGHNTY-NH2
# modifications: disulfide 2-7; N-terminus assumed
# SMILES: CC[C@H](C)[C@H](NC(=O)[C@H](C)NC(=O)CNC(=O)[C@H](Cc1ccccc1)NC(=O)[C@H](CC(N)=O)NC(=O)[C@@H]1CCCN1C(=O)[C@H](CO)NC(=O)[C@H](CO)NC(=O)[C@H](Cc1c[nH]cn1)NC(=O)[C@H](CCCNC(=N)N)NC(=O)[C@H](CC(C)C)NC(=O)[C@H](Cc1ccccc1)NC(=O)[C@H](CC(N)=O)NC(=O)[C@H](C)NC(=O)[C@H](CC(C)C)NC(=O)[C@H](CCCNC(=N)N)NC(=O)[C@H](CCC(N)=O)NC(=O)[C@@H](NC(=O)[C@H](C)NC(=O)[C@@H]1CSSC[C@H](NC(=O)[C@@H](N)CCCCNC(=O)CC[C@H](NC(=O)CCCCCCCCCCCCCCCCCCC(=O)O)C(=O)O)C(=O)N[C@@H](CC(N)=O)C(=O)N[C@@H]([C@@H](C)O)C(=O)N[C@@H](C)C(=O)N[C@@H]([C@@H](C)O)C(=O)N1)[C@@H](C)O)C(=O)N1CCC[C@H]1C(=O)N[C@@H](CO)C(=O)N[C@@H](CO)C(=O)N[C@H](C(=O)N[C@@H](CC(N)=O)C(=O)N[C@H](C(=O)NCC(=O)N[C@@H](Cc1c[nH]cn1)C(=O)N[C@@H](CC(N)=O)C(=O)N[C@H](C(=O)N[C@@H](Cc1ccc(O)cc1)C(N)=O)[C@@H](C)O)C(C)C)[C@@H](C)O
# notes: also called compound 77
# B3: N^ε1-[(4S)-4-carboxy-4-(19-carboxynonadecanoylamino)butanoyl]-[Arg14,Arg17,Pro21,Pro27]-h-amylin (peptide)
# peptide: K([γGlu-C20 diacid])CNTATCATQRLARFLRHSSPNFGAIPSSTNVGSNTY-NH2
# modifications: disulfide 2-7; N-terminus assumed
# SMILES: CC[C@H](C)[C@H](NC(=O)[C@H](C)NC(=O)CNC(=O)[C@H](Cc1ccccc1)NC(=O)[C@H](CC(N)=O)NC(=O)[C@@H]1CCCN1C(=O)[C@H](CO)NC(=O)[C@H](CO)NC(=O)[C@H](Cc1c[nH]cn1)NC(=O)[C@H](CCCNC(=N)N)NC(=O)[C@H](CC(C)C)NC(=O)[C@H](Cc1ccccc1)NC(=O)[C@H](CCCNC(=N)N)NC(=O)[C@H](C)NC(=O)[C@H](CC(C)C)NC(=O)[C@H](CCCNC(=N)N)NC(=O)[C@H](CCC(N)=O)NC(=O)[C@@H](NC(=O)[C@H](C)NC(=O)[C@@H]1CSSC[C@H](NC(=O)[C@@H](N)CCCCNC(=O)CC[C@H](NC(=O)CCCCCCCCCCCCCCCCCCC(=O)O)C(=O)O)C(=O)N[C@@H](CC(N)=O)C(=O)N[C@@H]([C@@H](C)O)C(=O)N[C@@H](C)C(=O)N[C@@H]([C@@H](C)O)C(=O)N1)[C@@H](C)O)C(=O)N1CCC[C@H]1C(=O)N[C@@H](CO)C(=O)N[C@@H](CO)C(=O)N[C@H](C(=O)N[C@@H](CC(N)=O)C(=O)N[C@H](C(=O)NCC(=O)N[C@@H](CO)C(=O)N[C@@H](CC(N)=O)C(=O)N[C@H](C(=O)N[C@@H](Cc1ccc(O)cc1)C(N)=O)[C@@H](C)O)C(C)C)[C@@H](C)O
# notes: also called compound 83
# B4: N^ε1-[(4S)-4-carboxy-4-(19-carboxynonadecanoylamino)butanoyl]-[Arg17,Pro21,Pro27,Arg34]-h-amylin (peptide)
# peptide: K([γGlu-C20 diacid])CNTATCATQRLANFLRHSSPNFGAIPSSTNVGRNTY-NH2
# modifications: disulfide 2-7; N-terminus assumed
# SMILES: CC[C@H](C)[C@H](NC(=O)[C@H](C)NC(=O)CNC(=O)[C@H](Cc1ccccc1)NC(=O)[C@H](CC(N)=O)NC(=O)[C@@H]1CCCN1C(=O)[C@H](CO)NC(=O)[C@H](CO)NC(=O)[C@H](Cc1c[nH]cn1)NC(=O)[C@H](CCCNC(=N)N)NC(=O)[C@H](CC(C)C)NC(=O)[C@H](Cc1ccccc1)NC(=O)[C@H](CC(N)=O)NC(=O)[C@H](C)NC(=O)[C@H](CC(C)C)NC(=O)[C@H](CCCNC(=N)N)NC(=O)[C@H](CCC(N)=O)NC(=O)[C@@H](NC(=O)[C@H](C)NC(=O)[C@@H]1CSSC[C@H](NC(=O)[C@@H](N)CCCCNC(=O)CC[C@H](NC(=O)CCCCCCCCCCCCCCCCCCC(=O)O)C(=O)O)C(=O)N[C@@H](CC(N)=O)C(=O)N[C@@H]([C@@H](C)O)C(=O)N[C@@H](C)C(=O)N[C@@H]([C@@H](C)O)C(=O)N1)[C@@H](C)O)C(=O)N1CCC[C@H]1C(=O)N[C@@H](CO)C(=O)N[C@@H](CO)C(=O)N[C@H](C(=O)N[C@@H](CC(N)=O)C(=O)N[C@H](C(=O)NCC(=O)N[C@@H](CCCNC(=N)N)C(=O)N[C@@H](CC(N)=O)C(=O)N[C@H](C(=O)N[C@@H](Cc1ccc(O)cc1)C(N)=O)[C@@H](C)O)C(C)C)[C@@H](C)O
# notes: also called compound 79
# B5: N^ε1-[(4S)-4-carboxy-4-(19-carboxynonadecanoylamino)butanoyl]-[Arg14,Arg17,Pro21,Pro27,Pro34]-h-amylin (peptide)
# peptide: K([γGlu-C20 diacid])CNTATCATQRLARFLRHSSPNFGAIPSSTNVGPNTY-NH2
# modifications: disulfide 2-7; N-terminus assumed
# SMILES: CC[C@H](C)[C@H](NC(=O)[C@H](C)NC(=O)CNC(=O)[C@H](Cc1ccccc1)NC(=O)[C@H](CC(N)=O)NC(=O)[C@@H]1CCCN1C(=O)[C@H](CO)NC(=O)[C@H](CO)NC(=O)[C@H](Cc1c[nH]cn1)NC(=O)[C@H](CCCNC(=N)N)NC(=O)[C@H](CC(C)C)NC(=O)[C@H](Cc1ccccc1)NC(=O)[C@H](CCCNC(=N)N)NC(=O)[C@H](C)NC(=O)[C@H](CC(C)C)NC(=O)[C@H](CCCNC(=N)N)NC(=O)[C@H](CCC(N)=O)NC(=O)[C@@H](NC(=O)[C@H](C)NC(=O)[C@@H]1CSSC[C@H](NC(=O)[C@@H](N)CCCCNC(=O)CC[C@H](NC(=O)CCCCCCCCCCCCCCCCCCC(=O)O)C(=O)O)C(=O)N[C@@H](CC(N)=O)C(=O)N[C@@H]([C@@H](C)O)C(=O)N[C@@H](C)C(=O)N[C@@H]([C@@H](C)O)C(=O)N1)[C@@H](C)O)C(=O)N1CCC[C@H]1C(=O)N[C@@H](CO)C(=O)N[C@@H](CO)C(=O)N[C@H](C(=O)N[C@@H](CC(N)=O)C(=O)N[C@H](C(=O)NCC(=O)N1CCC[C@H]1C(=O)N[C@@H](CC(N)=O)C(=O)N[C@H](C(=O)N[C@@H](Cc1ccc(O)cc1)C(N)=O)[C@@H](C)O)C(C)C)[C@@H](C)O
# notes: also called compound 65
# B6: N^ε1-[(4S)-4-carboxy-4-(19-carboxynonadecanoylamino)butanoyl]-[Arg14,Arg17,Pro21,Pro27,Pro31]-h-amylin (peptide)
# peptide: K([γGlu-C20 diacid])CNTATCATQRLARFLRHSSPNFGAIPSSTPVGSNTY-NH2
# modifications: disulfide 2-7; N-terminus assumed
# SMILES: CC[C@H](C)[C@H](NC(=O)[C@H](C)NC(=O)CNC(=O)[C@H](Cc1ccccc1)NC(=O)[C@H](CC(N)=O)NC(=O)[C@@H]1CCCN1C(=O)[C@H](CO)NC(=O)[C@H](CO)NC(=O)[C@H](Cc1c[nH]cn1)NC(=O)[C@H](CCCNC(=N)N)NC(=O)[C@H](CC(C)C)NC(=O)[C@H](Cc1ccccc1)NC(=O)[C@H](CCCNC(=N)N)NC(=O)[C@H](C)NC(=O)[C@H](CC(C)C)NC(=O)[C@H](CCCNC(=N)N)NC(=O)[C@H](CCC(N)=O)NC(=O)[C@@H](NC(=O)[C@H](C)NC(=O)[C@@H]1CSSC[C@H](NC(=O)[C@@H](N)CCCCNC(=O)CC[C@H](NC(=O)CCCCCCCCCCCCCCCCCCC(=O)O)C(=O)O)C(=O)N[C@@H](CC(N)=O)C(=O)N[C@@H]([C@@H](C)O)C(=O)N[C@@H](C)C(=O)N[C@@H]([C@@H](C)O)C(=O)N1)[C@@H](C)O)C(=O)N1CCC[C@H]1C(=O)N[C@@H](CO)C(=O)N[C@@H](CO)C(=O)N[C@H](C(=O)N1CCC[C@H]1C(=O)N[C@H](C(=O)NCC(=O)N[C@@H](CO)C(=O)N[C@@H](CC(N)=O)C(=O)N[C@H](C(=O)N[C@@H](Cc1ccc(O)cc1)C(N)=O)[C@@H](C)O)C(C)C)[C@@H](C)O
# notes: also called compound 63
# Biological target: T1, human calcitonin receptor (human, UniProt P30988 25-474)
# T1 construct: whole, on cells; Assayed as cell membranes of BHK tk'ts 13 cells stably transfected with the human calcitonin receptor (Assay VII); also called hCTR; hCT
# T1 sequence (looked up): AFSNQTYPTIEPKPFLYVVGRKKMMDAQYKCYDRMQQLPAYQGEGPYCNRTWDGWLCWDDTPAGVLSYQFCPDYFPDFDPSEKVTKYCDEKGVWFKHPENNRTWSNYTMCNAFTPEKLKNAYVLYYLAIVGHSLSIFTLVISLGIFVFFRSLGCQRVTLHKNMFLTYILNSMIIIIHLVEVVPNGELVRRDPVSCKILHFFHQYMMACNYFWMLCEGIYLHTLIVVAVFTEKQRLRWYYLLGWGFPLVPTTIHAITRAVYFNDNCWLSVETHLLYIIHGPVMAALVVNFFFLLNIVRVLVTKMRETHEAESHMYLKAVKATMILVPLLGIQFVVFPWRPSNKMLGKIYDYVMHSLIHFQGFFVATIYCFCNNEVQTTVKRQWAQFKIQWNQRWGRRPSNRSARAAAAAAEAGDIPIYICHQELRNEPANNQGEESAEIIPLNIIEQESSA
# Experiment: IC50 at hCTR divided by IC50 at hAmylin-R (SPA competition assays V and VII)
# Procedure, shortened: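 Membranes (35 ng/μL final) + SPA beads, 50 mM Hepes pH 7.4 buffer with 1 mM CaCl2, 5 mM MgCl₂, 0.1% OA, 0.02% Tween20; 120 min, 25° C, shaking; centrifuged, counted; IC₅₀ by one-site binding competition.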
row,Binder,Ratio hCT/hAmylin binding
1,B1,46.3
2,B2,118
3,B3,146
4,B4,46.1
5,B5,82.4
6,B6,157

# Biological target: T1, human calcitonin receptor
# Experiment: SPA competition vs 125I-calcitonin, membranes of BHK cells with human calcitonin receptor (Assay VII)
# Procedure, shortened: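 BHK hCTR membranes 35 ng/μL + SPA beads 0.05 mg/well; buffer 50 mM Hepes pH 7.4, 1 mM CaCl2, 5 mM MgCl₂, 0.1% OA, 0.02% Tween20. 120 min, 25° C., shaking. Scintillation count; IC50 by one-site binding competition.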
row,Binder,IC50
1,B1,6.86 nM
2,B2,50.7 nM
3,B3,137 nM
4,B4,36.4 nM
5,B5,53.5 nM
6,B6,130 nM
